Results from the supplement of paper PMC9170038.

Test system: MS2 coat protein
Assay: apparent KD of MS2 coat protein; designed switch direction (-1 OFF switch, 1 ON switch): 1; higher = weaker reporter binding
Procedure, shortened: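 For each design, the apparent KD is the median over clusters of curves fitted to normalised cluster fluorescence. Clusters held RNA switches with common flanks, transcribed on Illumina chips by stalled E. coli RNA polymerase. These were titrated with SNAP-549-labelled MS2 coat protein, doubling from 0.7 or 1.5 nM to 3 µM, without input, with 200 uM small-molecule ligand, or with an oligonucleotide input.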

[1] = input ligand: microRNA oligo, concentration not stated
[2] = Eterna round: R95, input ligand: FMN 200 uM
[3] = Eterna round: R95, input ligand: microRNA oligo, concentration not stated
[4] = Eterna round: R95, input ligand: none

ACUCUCACAGUAGGAUAUGUAGGAUAUGCCUACAUGAGGAUCACCCAUGUAAACAUGGCAGAAGGACAGAAGGACUUACAUUGG [pwkr ssNG2 2FMN + 1F5.2] (Eterna round: R96, puzzle: Same State NG 2)
apparent KD of MS2 coat protein (input ligand: FMN 200 uM): 31.7 nM | apparent KD of MS2 coat protein [1]: 197 nM | apparent KD of MS2 coat protein (input ligand: none): 408 nM

UGGCUGAGUCGAGGAUAUGAUCUUCAUAUAUAUACAUGAGGAUCACCCAUGUAUAAUUACAUGGAUCAGAAGGCGACUCAGCCA [SSNG2/13-A1] (Eterna round: R96, puzzle: Same State NG 2)
apparent KD of MS2 coat protein [1]: 22.9 nM

GACAAUCUAUCUGAGGAUAUCAUGAAAAAAACAUGAGGAUCACCCAUGUGCAGGAAAACUGCAUAUGAGAAGGCAGAUAGAUUGC [salish99_SS2_r3_012] (puzzle: Same State 2)
apparent KD of MS2 coat protein [2]: 34.1 nM | apparent KD of MS2 coat protein [3]: 443 nM | apparent KD of MS2 coat protein [4]: 781 nM

GGAGCCAAGGCAGGAUAUUCAUAUUAAAUAACAUGAGGAUCACCCAUGUAGGCCAGAAGGCCUUGGGAGAAGGGCCAUGGCUCG [Xeonanis - 13 mod21] (Eterna round: R96, puzzle: Same State NG 2)
apparent KD of MS2 coat protein (input ligand: FMN 200 uM): 21.1 nM | apparent KD of MS2 coat protein [1]: 109 nM | apparent KD of MS2 coat protein (input ligand: none): 189 nM

CUCCCACGUGCACAGGAUAUGCCGGGAUGCACAUGAGGAUCACCCAUGUAAUCCUGAAAAUAAAAGCAGAAGGGUGAUCAUGGGU [Teestege] (puzzle: Same State 2)
apparent KD of MS2 coat protein [2]: 36.1 nM | apparent KD of MS2 coat protein [3]: 11.6 nM | apparent KD of MS2 coat protein [4]: 10.2 nM

UGAGCCGGCACUGAGGAUAUUCAUAUUUAAACAUGAGGAUCACCCAUGUAGGCCAGAAGGCCUUGGGAGAAGGCAGGUCGGCUCC [salish99_ss2_r3_079] (puzzle: Same State 2)
apparent KD of MS2 coat protein [2]: 25.7 nM | apparent KD of MS2 coat protein [3]: 264 nM | apparent KD of MS2 coat protein [4]: 459 nM

UUUGGGUGGCUGGAGGAUAUUCGAGUGGUAACAUGAGGAUCACCCAUGUGUCGCGCGGUACACGAGGAGAAGGCUGGCGGCCGUU (puzzle: Same State 2)
apparent KD of MS2 coat protein [3]: 41.7 nM

GGCUAUCGCAUUCGAUAGCCUGAGCAUGUACAUGAGGAUCACCCAUGUCAUGUACAGGCUUUUUGCUCGUACUUAUA (puzzle: Sensor for hsa-mir-208a)
apparent KD of MS2 coat protein [2]: 71 nM | apparent KD of MS2 coat protein [3]: 13.6 nM | apparent KD of MS2 coat protein [4]: 93.4 nM

AGGCUCAGCAUGCAGGAUAUAGUCGCUGCGACAUGAGGAUCACCCAUGUGGUGUGAAAGAAAGCGCUAGAAGGGUAAAGUGAGUG [Beeran] (puzzle: Same State 2)
apparent KD of MS2 coat protein [2]: 244 nM | apparent KD of MS2 coat protein [3]: 467 nM | apparent KD of MS2 coat protein [4]: 750 nM

GGCCUGAGUCAAGGAUAUGCUACCGUUUCGGUAGCAGAAGGUGAUCACAUGAGGAUCACCCAUGUUUACGCGAAGACGCGCGCC (Eterna round: R96, puzzle: Same State NG 1)
apparent KD of MS2 coat protein (input ligand: FMN 200 uM): 128 nM | apparent KD of MS2 coat protein [1]: 56.7 nM | apparent KD of MS2 coat protein (input ligand: none): 35.7 nM

GUAGCAUACCGAGGAUAUUCAUAUUAAACAUGAGGAUCACCCAUGUAUUAGGCCAAAAGGCCUUGGGAGAAGGCGGAAUGCUAC [Xeonanis - 20 Mod5] (Eterna round: R96, puzzle: Same State NG 2)
apparent KD of MS2 coat protein (input ligand: FMN 200 uM): 24.6 nM | apparent KD of MS2 coat protein [1]: 28.3 nM | apparent KD of MS2 coat protein (input ligand: none): 48.3 nM

AGUCCAGCAUGAGCUGGACAAAAGCAUGUACAUGAGGAUCACCCAUGUUCAUGUACAAGCUUUUUGCUCGUCUUAAA [Mat - hsa-mir-208a - Mod of JL - 45] (puzzle: Sensor for hsa-mir-208a)
apparent KD of MS2 coat protein [2]: 807 nM | apparent KD of MS2 coat protein [3]: 17.5 nM | apparent KD of MS2 coat protein [4]: 562 nM

GACAAUCUAUCUGAGGAUAUCAUGAGAAUAACAUGAGGAUCACCCAUGUGCAGGAAAACUGCAUAUGAGAAGGCAGAUAGAUUGA [Mat - Same State 2 - Mod - D15] (puzzle: Same State 2)
apparent KD of MS2 coat protein [2]: 48.2 nM | apparent KD of MS2 coat protein [3]: 567 nM | apparent KD of MS2 coat protein [4]: 603 nM

GCUCGCACGAUGACCCACAUGAGGAUCACCCAUGUGCGUGGGCAGGAUAUCUAGAUUAAGGAUGUAGAGAAGGGUUGAGCGAGC [SameState NG3 #25] (Eterna round: R96, puzzle: Same State NG 3)
apparent KD of MS2 coat protein (input ligand: FMN 200 uM): 555 nM | apparent KD of MS2 coat protein [1]: 136 nM | apparent KD of MS2 coat protein (input ligand: none): 302 nM

UGGUAACAUGAGGAUCACCCAUGUCAAAUGAAUCGAGGAUAUGGGAACUAACAACACAAACUAGAAGGCGAACUUG [Altered State 1-9 - Jieux - Same State 1] (puzzle: Same State 1)
apparent KD of MS2 coat protein [2]: 32.6 nM | apparent KD of MS2 coat protein [3]: 39.6 nM | apparent KD of MS2 coat protein [4]: 91.5 nM

GUUAAACAUGAGGAUCACCCAUGUCAAUGUAGUCGAGGAUAUGGGCAGCUAUGAGGCGUACUAGAAGGCGAAGAGU [Mat - Same State 1 - Mod of JL - D12] (Eterna round: R96, puzzle: Same State 1)
apparent KD of MS2 coat protein [1]: 224 nM

GCUCGCACGAUGACCCACAUGAGGAUCACCCAUGUGCUUGGGCAGGAUAUCUAGAUUAAGGAUGUAGAGAAGGGUUGAGCGAGC [SameState NG3 #27] (Eterna round: R96, puzzle: Same State NG 3)
apparent KD of MS2 coat protein (input ligand: FMN 200 uM): 308 nM | apparent KD of MS2 coat protein [1]: 113 nM | apparent KD of MS2 coat protein (input ligand: none): 230 nM

UAUCGUUUGAUAGGAUAUCGCUAUACAUGAGGAUCACCCAUGUUUACCACGCUGGUUUUUCAUACCGAGAAGGAUUCUGAUGAC [salish99_SSNG02_r04_006] (Eterna round: R96, puzzle: Same State NG 2)
apparent KD of MS2 coat protein (input ligand: FMN 200 uM): 38.3 nM | apparent KD of MS2 coat protein [1]: 31.5 nM | apparent KD of MS2 coat protein (input ligand: none): 27.7 nM

GCUCUACAUGAGGAUCACCCAUGUCCGAACGCGCGAGGAUAUGCAUGGGCGAAAGCUGGUGCAGAAGGCGUGGGAC [2theCorner] (puzzle: Same State 1)
apparent KD of MS2 coat protein [2]: 315 nM | apparent KD of MS2 coat protein [3]: 202 nM | apparent KD of MS2 coat protein [4]: 358 nM

ACAAGACAUGAGGAUCACCCAUGUAUAAAUUACACAGGAUAUCGGCGGACCGCACCCGCACGAGAAGGGUGACUUC [Eszaleer] (puzzle: Same State 1)
apparent KD of MS2 coat protein [2]: 472 nM | apparent KD of MS2 coat protein [3]: 34.1 nM | apparent KD of MS2 coat protein [4]: 24.7 nM

GUAGCAUACCGAGGAUAUUCAUAUUACAUGAGGAUCACCCAUGUUUUAGGCCGAUUACGGCCUUGGGAGAAGGCGGAAUGCUAC [Xeonanis - 20 Mod23] (Eterna round: R96, puzzle: Same State NG 2)
apparent KD of MS2 coat protein (input ligand: FMN 200 uM): 13.8 nM | apparent KD of MS2 coat protein [1]: 20.1 nM | apparent KD of MS2 coat protein (input ligand: none): 28.8 nM

AAACGGCCGAACGGAGGGCCACAUGAGGAUCACCCAUGUACAUAGGAUAUCACACCAACGAGGCGUGAGAAGGGUGAUUAAAAC [Teisedbe] (Eterna round: R96, puzzle: Same State NG 3)
apparent KD of MS2 coat protein (input ligand: FMN 200 uM): 176 nM | apparent KD of MS2 coat protein [1]: 52.1 nM | apparent KD of MS2 coat protein (input ligand: none): 1110 nM

GUUACAUGAGGAUCACCCAUGUAUGUGUGGGAGUAAGUGUCUUAGGAUAUCUAUGGUUUAAUUUAAGAGAAGGAAGAUUGUUGU [JMF's solution 72] (Eterna round: R96, puzzle: Same State NG 3)
apparent KD of MS2 coat protein (input ligand: FMN 200 uM): 111 nM | apparent KD of MS2 coat protein [1]: 73.9 nM | apparent KD of MS2 coat protein (input ligand: none): 96.6 nM

CCGAUAAAUGGAGGAUAUGGAGCCUUAUUGGCUCCAGAAGGCUAAUAACAUGAGGAUCACCCAUGUCGGCGGUCUAAUGACCGA [Eli NG1ss - 51] (Eterna round: R96, puzzle: Same State NG 1)
apparent KD of MS2 coat protein [1]: 46.4 nM

CCCUUCGGCACAUGAGGAUCACCCAUGUUUUAGUUGAAGAGGUAGGAUAUGGCUGGGAGCGGAAGCCAGAAGGACCAAGUGAGU [Lareonge] (Eterna round: R96, puzzle: Same State NG 3)
apparent KD of MS2 coat protein (input ligand: FMN 200 uM): 7.76 nM | apparent KD of MS2 coat protein [1]: 8.41 nM | apparent KD of MS2 coat protein (input ligand: none): 12.6 nM

GCUCGAUGUGUUGUCUACAUGAGGAUCACCCAUGUAGGUGCGGAGGAUAUCUACGUGCUUUAUGUAGAGAAGGUCGUAUCGAGC [SameState NG3 #86] (Eterna round: R96, puzzle: Same State NG 3)
apparent KD of MS2 coat protein (input ligand: FMN 200 uM): 21.5 nM | apparent KD of MS2 coat protein [1]: 54.3 nM | apparent KD of MS2 coat protein (input ligand: none): 71.4 nM

AUAAGGCAAGCUUUUUUCUCGUAGUGUAAACAUGAGGAUCACCCAUGUGCCCACCCUGGAUCUUUGGAUCCCAGAAC [Sobeedbeon] (puzzle: Sensor for hsa-mir-208a)
apparent KD of MS2 coat protein [2]: 23 nM | apparent KD of MS2 coat protein [3]: 15.3 nM | apparent KD of MS2 coat protein [4]: 22.4 nM

UUUGCAUUGCAAGGAUAUUGAUAACAUGAGGAUCACCCAUGUAUAGGUUCAGGAUUUACGAGUAACAAGAAGGUGCUAUUGUUU [JR_SSNG2_Sub040] (Eterna round: R96, puzzle: Same State NG 2)
apparent KD of MS2 coat protein (input ligand: FMN 200 uM): 27.6 nM | apparent KD of MS2 coat protein [1]: 20.7 nM | apparent KD of MS2 coat protein (input ligand: none): 31.8 nM

AGUCCAGCCUGAGCUGGACAAUAGCAUGUACAUGAGGAUCACCCAUGUCAUGUACAAGCUUUUUGCUCGUCUUAAAA [JL zipper 48] (Eterna round: R96, puzzle: Sensor for hsa-mir-208a)
apparent KD of MS2 coat protein (input ligand: FMN 200 uM): 163 nM | apparent KD of MS2 coat protein [1]: 12.4 nM | apparent KD of MS2 coat protein (input ligand: none): 159 nM

AGAGGAGGAGCAGGAUAUUCGAAGAAGAACGUGGAAGAAGGGUUCAUGCGAUGACAUGAGGAUCACCCAUGUACCGCGCGAGGA [AK SSNG1-V2-11] (Eterna round: R96, puzzle: Same State NG 1)
apparent KD of MS2 coat protein (input ligand: FMN 200 uM): 50 nM | apparent KD of MS2 coat protein [1]: 42.9 nM | apparent KD of MS2 coat protein (input ligand: none): 67.6 nM

AACAAUCUAUCUGAGGAUAUCAUGAAAUAAACAUGAGGAUCACCCAUGUGCAGGAAAACUGCAUAUGAGAAGGCUGAUAGAUUGA [salish99_ss2_r3_051] (puzzle: Same State 2)
apparent KD of MS2 coat protein [2]: 78 nM | apparent KD of MS2 coat protein [3]: 574 nM | apparent KD of MS2 coat protein [4]: 5350 nM

GGAGCCGGCCUAGGAUAUUUCAUUAAAAAACAUGAGGAUCACCCAUGUAGGCCAGAAGGCCUUGGGAAGAAGGAGGUCGGCUCC [Loop Effect - U24] (Eterna round: R96, puzzle: Same State NG 2)
apparent KD of MS2 coat protein (input ligand: FMN 200 uM): 12.7 nM | apparent KD of MS2 coat protein [1]: 16.2 nM | apparent KD of MS2 coat protein (input ligand: none): 24.6 nM
